In PMC2360737 one finds fold of cyclin E co-precipitated with p21 against that with p27 and percent of CDK2/cyclin E complex bound data, which are given here for one substance.

Assay [1] has as its target p21 (human (endogenous in A2780)) (UniProt P38936). The experiment in a line: co-IP; endogenous proteins in crude lysates of A2780 cells, untreated or treated with 0.6 uM DAP (up to 36 h; also after control or p21 siRNA); immunoprecipitated with anti-CDK4, anti-CDK2, anti-p21 or anti-p27 antibody, immunoblotted.
Assay [2] addresses p27 (human (endogenous in A2780)) (UniProt P46527). Described as above.
Sequence of UniProt P46527 (P46527 whole entry): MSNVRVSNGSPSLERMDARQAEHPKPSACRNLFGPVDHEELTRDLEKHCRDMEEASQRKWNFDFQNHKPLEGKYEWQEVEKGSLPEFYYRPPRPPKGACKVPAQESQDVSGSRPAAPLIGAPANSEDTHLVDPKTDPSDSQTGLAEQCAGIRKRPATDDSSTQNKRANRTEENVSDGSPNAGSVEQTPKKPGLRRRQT

Sequence of cyclin E (P24864 whole entry): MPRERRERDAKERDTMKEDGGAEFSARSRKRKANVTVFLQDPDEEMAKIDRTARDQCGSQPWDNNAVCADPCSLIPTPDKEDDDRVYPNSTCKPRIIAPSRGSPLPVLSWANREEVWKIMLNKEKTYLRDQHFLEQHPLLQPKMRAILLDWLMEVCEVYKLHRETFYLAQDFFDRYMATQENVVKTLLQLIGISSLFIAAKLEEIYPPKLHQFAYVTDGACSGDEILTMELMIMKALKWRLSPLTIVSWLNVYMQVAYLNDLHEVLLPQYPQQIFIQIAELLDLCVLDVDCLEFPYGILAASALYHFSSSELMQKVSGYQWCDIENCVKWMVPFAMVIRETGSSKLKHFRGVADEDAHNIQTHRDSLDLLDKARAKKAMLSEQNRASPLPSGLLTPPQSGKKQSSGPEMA
Sequence of UniProt P38936 (P38936 whole entry): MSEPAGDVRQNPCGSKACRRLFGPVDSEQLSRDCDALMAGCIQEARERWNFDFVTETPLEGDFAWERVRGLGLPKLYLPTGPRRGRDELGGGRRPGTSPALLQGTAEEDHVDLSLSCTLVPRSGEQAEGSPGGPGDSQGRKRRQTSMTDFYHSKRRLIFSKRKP

With “cyclin E (from UniProt P24864 1-410) (natural protein)”, in assay [1], the fold of cyclin E co-precipitated with p21 against that with p27 was 3 fold and the percent of CDK2/cyclin E complex bound was 75%. The percent of CDK2/cyclin E complex bound in assay [2] stood at 25%.
